Test results taken from the supplement of paper PMC7877785.
± gives the uncertainty stated by the source.

Assay: self-splicing fitness, log relative to wild type (ln ratio); higher = more splicing; Tetrahymena group I intron in knt gene, E. coli kanamycin selection, DiMSum; sequences stand for … in CUCUCU…GGAGGGAAAAGUUAUCAGGCAUGCACCUGGUAGCUAGUCUUUAAACCAAUAGAUUGCAUCGGUUUAAAAGGCAAGACCGUCAAAUUGCGGGAAAGGGGUCAACAGCCGUUCAGUACCAAGUCUCAGGGGAAACUUUGAGAUGGCCUUGCAAAGGGUAUGGUAAUAAGCUGACGGACAUGGUCCUAACCACGCAGCCAAGUCCUAAGUCAACAGAUCUUCUGUUGAUAUGGAUGCAGUUCACAGACUAAAUGUCGGUCGGGGAAGAUGUAUUCUUCUCAUAAGAUAUAGUCGGACCUCUCCUUAAUGGGAGCUAGCGGAUGAAGUGAUGCAACACUGGAGCCGCUGGGAACUAAUUUGUAUGCGAAAGUAUAUUGAUUAGUUUUGGAGUACUCGUGGUCG
Summary of the method: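 A randomised library covering all eight P1ex-region intron nucleotides was built with the intron in the knt kanamycin-resistance gene on pET-22b(+) and held in E. coli BL21(DE3). Cells were grown overnight at 37°C or 30°C on LB agar, with or without 25 μg/mL kanamycin, plus 100 μg/mL carbenicillin, 50 μM IPTG and 0.2% rhamnose, and pooled colonies were amplicon-sequenced on an Illumina HiSeq 2500. DiMSum fitness is the error-weighted combination of wild-type-normalised replicate fold changes, kanamycin versus none.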

Sequence	self-splicing fitness (ln) (30 °C)	self-splicing fitness (ln) (37 °C)
ACUUAGCAAUAUUACGUGGG	-2.95 ± 0.14	-1.14 ± 0.12
GGACAGCAAUAUUACGAUGA	-1.08 ± 0.15	-1.65 ± 0.14
AUCGAGCAAUAUUACGAUGU	-2.9 ± 0.12	-1.76 ± 0.11
CGUGAGCAAUAUUACGGUCC	-3.39 ± 0.24	-1.69 ± 0.24
AGUUAGCAAUAUUACGCGUC	-3.11 ± 0.48	-0.621 ± 0.33
GGUGAGCAAUAUUACGGGGG	-3.41 ± 0.43	
AAGCAGCAAUAUUACGCAUG	-2.97 ± 0.2	-2.27 ± 0.2
ACCUAGCAAUAUUACGUACU	-0.755 ± 0.052	-0.159 ± 0.062
GAAUAGCAAUAUUACGUCCA	-1.28 ± 0.1	-0.00949 ± 0.13
GGAAAGCAAUAUUACGAAAA	-1.04 ± 0.48	
GCGCAGCAAUAUUACGGCCU	-0.201 ± 0.061	0.128 ± 0.072
GAAUAGCAAUAUUACGCCCA	-0.91 ± 0.17	-0.732 ± 0.24
GGACAGCAAUAUUACGGCAG	-3.87 ± 0.14	-2.45 ± 0.1
ACAAAGCAAUAUUACGACCA	-0.633 ± 0.12	-0.407 ± 0.13
ACGAAGCAAUAUUACGAGUG	-2.77 ± 0.1	-2.29 ± 0.11
CUUUAGCAAUAUUACGUUUC		-2.15 ± 0.23
CUAUAGCAAUAUUACGAGAC	-1.7 ± 0.37	
AGGGAGCAAUAUUACGUUGC		-1.37 ± 0.31
UAAAAGCAAUAUUACGCAAG	-1.48 ± 0.06	-0.639 ± 0.073
UCUGAGCAAUAUUACGUGGG	-2.78 ± 0.14	-0.918 ± 0.11
UGUAAGCAAUAUUACGUCAA	-2.57 ± 0.18	-0.839 ± 0.16
CCAUAGCAAUAUUACGGAGC		-2.74 ± 0.31
GCCUAGCAAUAUUACGUCGU	-0.763 ± 0.068	-0.337 ± 0.069
AUACAGCAAUAUUACGUGAU	-2.14 ± 0.084	-0.569 ± 0.089
GGCGAGCAAUAUUACGUGAU	-2.26 ± 0.15	-1.08 ± 0.14
ACACAGCAAUAUUACGACAG	-1.62 ± 0.054	-0.914 ± 0.077
CGUGAGCAAUAUUACGGUGG	-2.03 ± 0.082	-1.35 ± 0.1

Sequence	self-splicing fitness (ln) (30 °C)	self-splicing fitness (ln) (37 °C)
ACAUAGCAAUAUUACGCUCG	-0.317 ± 0.091	0.247 ± 0.12
CUUAAGCAAUAUUACGACGU	-2.75 ± 0.16	-1.44 ± 0.15
ACCAAGCAAUAUUACGAACG	-1.61 ± 0.076	-0.581 ± 0.087
AUCAAGCAAUAUUACGGUUU	-1.29 ± 0.073	-0.35 ± 0.075
CCUGAGCAAUAUUACGGAUU	-2.74 ± 0.18	-2.34 ± 0.16
GAACAGCAAUAUUACGGUGA	-1.08 ± 0.071	0.0381 ± 0.08
AUGCAGCAAUAUUACGUAUA	-2.57 ± 0.27	-1.6 ± 0.16
CCUCAGCAAUAUUACGAGAA	-3.3 ± 0.41	-2.28 ± 0.29
CUAAAGCAAUAUUACGCGGG	-2.27 ± 0.13	-2.03 ± 0.15
AGAGAGCAAUAUUACGUUCU	-3.19 ± 0.41	-2.26 ± 0.45
CCCUAGCAAUAUUACGCGCA	-2.49 ± 0.45	-1.72 ± 0.32
CACAAGCAAUAUUACGCAUA	-3.87 ± 0.19	-1.12 ± 0.11
CGAAAGCAAUAUUACGUACU	-0.756 ± 0.078	0.23 ± 0.098
GUAUAGCAAUAUUACGGUCG	-2.06 ± 0.15	0.0791 ± 0.15
GGUUAGCAAUAUUACGAUCA	-0.0432 ± 0.15	-0.342 ± 0.13
GAUGAGCAAUAUUACGUAUG		-1.59 ± 0.14
ACCCAGCAAUAUUACGGUGU	-2.69 ± 0.076	-1.64 ± 0.11
CAAUAGCAAUAUUACGCCUA	-2.01 ± 0.22	-1.74 ± 0.18
GUUAAGCAAUAUUACGCUUG	-2.28 ± 0.14	-0.983 ± 0.15
CUAAAGCAAUAUUACGUAGC	-3.73 ± 0.2	-2.94 ± 0.37
UGGUAGCAAUAUUACGGAUC	-2.25 ± 0.23	-1.65 ± 0.32
GGAGAGCAAUAUUACGAAUG	-3.28 ± 0.28	-2.71 ± 0.41
AUCAAGCAAUAUUACGUUGA	-2.52 ± 0.1	-1.8 ± 0.12
CCGAAGCAAUAUUACGAUGG	-3.47 ± 0.19	-3.7 ± 0.2
AUCCAGCAAUAUUACGUGUC	-3.34 ± 0.16	-2.24 ± 0.14
ACGCAGCAAUAUUACGUAUG	-4.32 ± 0.22	-2.54 ± 0.16
UACGAGCAAUAUUACGAACG	-2.96 ± 0.26	-2.05 ± 0.16

Sequence	self-splicing fitness (ln) (30 °C)	self-splicing fitness (ln) (37 °C)
UAGUAGCAAUAUUACGCACG	-0.964 ± 0.15	-0.244 ± 0.21
GUUCAGCAAUAUUACGGAUG	-0.518 ± 0.081	0.107 ± 0.085
UUCGAGCAAUAUUACGAGAC	-0.119 ± 0.49	
CACCAGCAAUAUUACGCCUG	-1.11 ± 0.076	-0.247 ± 0.097
AGUCAGCAAUAUUACGGGAC	-2.45 ± 0.18	-2.16 ± 0.24
AUGGAGCAAUAUUACGAAGU		-1.77 ± 0.36
GCCGAGCAAUAUUACGAAAG	-2.81 ± 0.33	
GGCCAGCAAUAUUACGUACU	-0.417 ± 0.08	-0.256 ± 0.093
CUCCAGCAAUAUUACGAGAG	-4.68 ± 0.31	-1.32 ± 0.13
AAAUAGCAAUAUUACGCCUC	-1.6 ± 0.14	-0.0982 ± 0.17
GAGGAGCAAUAUUACGAAAU	-3 ± 0.4	-1.14 ± 0.23
AGUCAGCAAUAUUACGCUUG	-2.79 ± 0.15	-0.514 ± 0.15
AAAUAGCAAUAUUACGGCAG	-1.67 ± 0.15	-0.465 ± 0.16
UAGUAGCAAUAUUACGGAAU		-2.65 ± 0.44
GUAAAGCAAUAUUACGUCCG	-0.907 ± 0.088	-0.395 ± 0.14
UAGUAGCAAUAUUACGUGGU	-3.62 ± 0.18	-3.33 ± 0.19
CCCCAGCAAUAUUACGCUCU	-3.81 ± 0.22	-2.47 ± 0.26
CAUGAGCAAUAUUACGGCCA		-1.36 ± 0.41
CUUCAGCAAUAUUACGCCGA		-2.47 ± 0.31
AUCCAGCAAUAUUACGUCGU	-0.689 ± 0.062	-0.625 ± 0.077
GACGAGCAAUAUUACGCUAC	-2.62 ± 0.18	-2.54 ± 0.26
UAAUAGCAAUAUUACGGCCG	-0.212 ± 0.12	0.0754 ± 0.16
CCCGAGCAAUAUUACGUUGA	-4.57 ± 0.32	-2.78 ± 0.2
UCCGAGCAAUAUUACGGAUU	-3.52 ± 0.29	-2.45 ± 0.26
UGAGAGCAAUAUUACGGGUU	-2.45 ± 0.24	-2.85 ± 0.31
